The values that follow come from patent US20110190386A1.

Assay [1] has as its target CFP from CFP-empty plasmid (pECFP). As to the kind of experiment: FRET by acceptor photobleaching; negative control, cotransfection of empty CFP and YFP plasmids in MDA-MB231 cells.
The target of assay [2] is CFP-tagged CD44 (human full length CD44s cDNA fused in frame into pECFP, expressed in MDA-MB231 cells) (human) (UniProt P16070). As to the kind of experiment: FRET by acceptor photobleaching, CFP-CD44/YFP-OPN in MDA-MB231 cells, in the presence of blocking antibody to αvβ3 integrin.
Assay [3] has the same target. As to the kind of experiment: FRET by acceptor photobleaching, CFP-CD44/YFP-OPN in MDA-MB231 cells, in the presence of mutated OPN-R3 RNA aptamer (control).
The target is the same in assay [4]. As to the kind of experiment: FRET by acceptor photobleaching, confocal microscopy, MDA-MB231 cells coexpressing CFP-CD44 and YFP-OPN.

In assay [1], YFP from YFP-empty plasmid (pEYFP) yielded an FRET efficiency of 0.23%.
For “YFP-tagged OPN (human OPN cDNA fused in frame into pEYFP, expressed in MDA-MB231 cells) (from UniProt P10451 17-314) (ligand)”, the FRET efficiency in assay [2] is 19.6%; in assay [3], 23.1%; in assay [4], 24.2%.
